These results are taken from patent publication US20140030216.

The target of series [1] is T1, recombinant rhIFNAR1 (≈110 kD), P17181.
T1 chain: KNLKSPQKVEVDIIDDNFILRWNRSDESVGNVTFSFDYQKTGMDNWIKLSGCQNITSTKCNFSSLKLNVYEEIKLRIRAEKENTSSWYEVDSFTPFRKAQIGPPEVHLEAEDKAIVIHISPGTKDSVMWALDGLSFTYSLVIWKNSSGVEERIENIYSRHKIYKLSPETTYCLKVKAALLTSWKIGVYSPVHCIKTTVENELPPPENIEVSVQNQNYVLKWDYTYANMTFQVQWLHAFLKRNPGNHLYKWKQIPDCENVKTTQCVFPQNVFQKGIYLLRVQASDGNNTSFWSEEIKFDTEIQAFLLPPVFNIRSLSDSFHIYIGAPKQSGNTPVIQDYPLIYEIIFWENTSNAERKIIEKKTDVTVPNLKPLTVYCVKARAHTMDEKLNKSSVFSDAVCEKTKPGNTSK

rhMCP-3, P80098, sequence (P80098 24-99): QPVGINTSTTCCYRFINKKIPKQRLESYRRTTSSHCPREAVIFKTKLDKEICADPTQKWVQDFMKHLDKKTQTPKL

B1: Purified human MMP-2 (mixture of the proenzyme (50%) and the active form (50%)) (protein)
chain: YNFFPRKPKWDKNQITYRIIGYTPDLDPETVDDAFARAFQVWSDVTPLRFSRIHDGEADIMINFGRWEHGDGYPFDGKDGLLAHAFAPGTGVGGDSHFDDDELWTLGEGQVVRVKYGNADGEYCKFPFLFNGKEYNSCTDTGRSDGFLWCSTTYNFEKDGKYGFCPHEALFTMGGNAEGQPCKFPFRFQGTSYDSCTTEGRTDGYRWCGTTEDYDRDKKYGFCPETAMSTVGGNSEGAPCVFPFTFLGNKYESCTSAGRSDGKMWCATTANYDDDRKWGFCPDQGYSLFLVAAHEFGHAMGLEHSQDPGALMAPIYTYTKNFRLSQDDIKGIQELYGASPDIDLGTGPTPTLGPVTPEICKQDIVFDGIAQIRGEIFFFKDRFIWRTVTPRDKPMGPLLVATFWPELPEKIDAVYEAPQEEKAVFFAGNEYWIYSASTLERGYPKPLTSLGLPPDVQRVDAAFNWSKNKKTYIFAGDKFWRYNEVKKKMDPGFPKLIADAWNAIPDNLDAVVDLQGGGHSYFFKGAYYLKLENQSLKSVKFGSIKSDWLGC
Take B1: the “degradation of rhIFNAR1 after overnight incubation with MMP-2 (Western blot)” value in series [1] is “recombinant rhIFNAR1 (≈110 kD) incubated overnight with active MMP-2 was degraded by MMP-2”. The “MCP-3 degradation (MCP-3 content by ELISA after overnight incubation)” value in the series with rhMCP-3, P80098 is on record as “MMP-2 activity was controlled by measuring its capacity to degrade MCP-3”.
